In patent US20180223285 one finds IC50 and Kd data, which are given here for 16 substances.

One may read the IC50 as the concentration that gives 50% inhibition. The term Kd denotes the free concentration of one partner at which half of the binding sites on the other are occupied at equilibrium, for simple one-to-one binding. Lower therefore signals higher affinity.

One data set concerns the target human C5 (Homo sapiens) (UniProt P01031). The data set is described as follows: cell_activity. The following applies: maximal 2'-OMe purine and 2'-F pyrimidine substitution; complement-dependent sheep erythrocyte hemolysis in human serum; positive control.
The target of the next data set is T1, human C5a (Homo sapiens) (UniProt P01031).
T1 sequence: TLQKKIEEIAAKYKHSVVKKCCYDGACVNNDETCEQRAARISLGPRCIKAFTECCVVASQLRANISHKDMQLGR
The data set is described as follows: SPR. The conditions noted are these: L-RNA.

The target in the next data set is T2, mouse C5a (Mus musculus) (UniProt P06684).
T2 sequence: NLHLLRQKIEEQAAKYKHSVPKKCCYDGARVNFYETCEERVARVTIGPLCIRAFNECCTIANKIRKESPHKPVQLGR
Put plainly: SPR. The conditions noted are these: L-RNA, Biacore, HBS-EP, 37 C. On the technique in general: Surface plasmon resonance follows binding to a sensor surface in real time, without labels.

Data set [1] has as its target T3, human desArg-C5a (Homo sapiens) (UniProt P01031).
T3 sequence: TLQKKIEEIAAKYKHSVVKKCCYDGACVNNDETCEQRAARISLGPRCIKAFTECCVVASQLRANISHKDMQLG
Put plainly: SPR. The conditions noted are these: L-RNA, 5' 40 kDa PEG, Biacore, HBS-EP, 37 C.

Data set [2] has as its target T4, mouse desArg-C5a (Mus musculus) (UniProt P06684).
T4 sequence: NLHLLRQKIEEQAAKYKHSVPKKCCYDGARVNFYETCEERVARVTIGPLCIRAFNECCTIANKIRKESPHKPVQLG
The data set is described as follows: SPR. The conditions noted are these: L-RNA; L-2'-deoxy dU7,dU28,dC38; 5' 40 kDa PEG; Biacore, HBS-EP, 37 C.

Where [3] appears, read: L-2'-deoxy dU5,dG12,dA13,dU26,dU28,dC36, terminal stretch truncated to one nucleotide, reduced activity, exact value in figure.

C5C6 aptamer (Biesecker et al. 1999) displayed an IC50 with human C5 (Homo sapiens) of 1000 nM. In the data set with human C5a (Homo sapiens) (setting [3]), “GAUGUGGUGGUGAAGGGUUGUUGGGUGUCGACGCACAGC [NOX-D19001-6xDNA-024]” yielded a Kd of less than 10 nM.

The substance “GAUGUGGUGGUGAAGGGUUGUUGGGUGUCGACGCACAGGC [NOX-D19001-6xDNA-010]” gave a Kd with human C5a (Homo sapiens) (setting [3]) of less than 10 nM. In turn, “GAUGUGGUGGUGAAGGGUUGUUGGGUGUCGACGCACGC [NOX-D19001-6xDNA-029]” had a Kd with human C5a (Homo sapiens) (setting [3]) of less than 10 nM. With “GCCUGAUGUGGUGGUGAAGGGUUGUUGGGUGUCGACGCACAGGC [NOX-D19001 (274-C8-002-G14)]”, the Kd with mouse C5a (Mus musculus) came out at 0.3 nM; with human C5a (Homo sapiens) (Biacore, HBS-EP, 37 C), 1.38 nM. The substance “GCCUGAUGUGGUGGUGAAGGGUUGUUGGGUGUCGACGCACAGGC [NOX-D19001-6xDNA (D09-16-17-30-32-40)]” registered a Kd in the data set with human C5a (Homo sapiens) (L-2'-deoxy dU9,dG16,dA17,dU30,dU32,dC40, Biacore, HBS-EP, 37 C) of 0.361 nM. In other words, the sub-nanomolar range.

In the data set with human C5a (Homo sapiens) (L-2'-deoxy dU9, Biacore, HBS-EP, 37 C), “GCCUGAUGUGGUGGUGAAGGGUUGUUGGGUGUCGACGCACAGGC [NOX-D19001-D09]” showed a Kd of 0.709 nM. Substance “GCGAUGUGGUGGUGAAGGGUUGUUGGGUGUCGACGCAC [NOX-D19001-6xDNA-032]” had a Kd in the data set with human C5a (Homo sapiens) (L-2'-deoxy dU7,dG14,dA15,dU28,dU30,dC38, terminal stretch truncated to one nucleotide, reduced activity, exact value in figure) of less than 10 nM. As to “GCGAUGUGGUGGUGAAGGGUUGUUGGGUGUCGACGCACGC [NOX-D20 (NOX-D19001-6xDNA-020-5'40kDa-PEG)]”, the Kd with mouse C5a (Mus musculus) (L-2'-deoxy dU7,dG14,dA15,dU28,dU30,dC38, 5' 40 kDa PEG) was found to be 0.019 nM; in the data set with human C5a (Homo sapiens) (L-2'-deoxy dU7,dG14,dA15,dU28,dU30,dC38, 5' 40 kDa PEG, Biacore, HBS-EP, 37 C) it was 0.299 nM; in data set [1] (L-2'-deoxy dU7,dG14,dA15,dU28,dU30,dC38) it was 0.316 nM. Turning to “GCGAUGUGGUGGUGAAGGGUUGUUGGGUGUCGACGCACGC [NOX-D21 (NOX-D19001-2dU-1dC-020-5'40kDa-PEG)]”, the Kd with mouse C5a (Mus musculus) (L-2'-deoxy dU7,dU28,dC38, 5' 40 kDa PEG) amounted to 0.029 nM; in data set [2], 0.028 nM; with human C5a (Homo sapiens) (L-2'-deoxy dU7,dU28,dC38, 5' 40 kDa PEG, Biacore, HBS-EP, 37 C), 0.815 nM; in data set [1] (L-2'-deoxy dU7,dU28,dC38), 0.854 nM.

Regarding “GCGAUGUGGUGGUGAAGGGUUGUUGGGUGUCGACGCACGC [NOX-D19001-2xDNA-020]”, the Kd in the data set with human C5a (Homo sapiens) (L-2'-deoxy dU7,dU28, stated as improved by more than factor 10 vs 11.3 nM of NOX-D19001-020, exact value in figure) was less than 1.13 nM. “GCGAUGUGGUGGUGAAGGGUUGUUGGGUGUCGACGCACGC [NOX-D19001-3dU-1dC-020]” gave a Kd in the data set with human C5a (Homo sapiens) (L-2'-deoxy dU7,dU28,dU30,dC38, stated as improved by more than factor 10 vs 11.3 nM of NOX-D19001-020, exact value in figure) of less than 1.13 nM. The substance “GCGAUGUGGUGGUGAAGGGUUGUUGGGUGUCGACGCACGC [NOX-D19001-3xDNA-020]” displayed an equilibrium dissociation constant (Kd) with human C5a (Homo sapiens) (L-2'-deoxy dU7,dU28,dU30, stated as improved by more than factor 10 vs 11.3 nM of NOX-D19001-020, exact value in figure) of less than 1.13 nM. In the data set with human C5a (Homo sapiens) (Biacore, HBS-EP, 37 C), “GCGAUGUGGUGGUGAAGGGUUGUUGGGUGUCGACGCACGC [NOX-D19001-020]” returned a Kd of 11.3 nM. Turning to “GCGAUGUGGUGGUGAAGGGUUGUUGGGUGUCGACGCACGC [NOX-D20001 (NOX-D19001-6xDNA-020)]”, in the data set with human C5a (Homo sapiens) (L-2'-deoxy dU7,dG14,dA15,dU28,dU30,dC38, Biacore, HBS-EP, 37 C), the Kd came to 0.3 nM.

“GCGAUGUGGUGGUGAAGGGUUGUUGGGUGUCGACGCACGC [NOX-D21001 (NOX-D19001-2dU-1dC-020)]” returned a Kd in the data set with human C5a (Homo sapiens) (L-2'-deoxy dU7,dU28,dC38, stated as improved by more than factor 10 vs 11.3 nM of NOX-D19001-020, exact value in figure) of less than 1.13 nM.
